The values that follow come from patent US5571894, “Recombinant antibodies specific for a growth factor receptor” (Ciba-Geigy Corporation, dated 1996).

The target of assay [1] is T1, human c-erbB-2 protein (human, UniProt P04626). Put plainly: flow cytometry on SKBR3 cells.
In assay [2] the target is 185 kD c-erbB-2 protein from SKBR3 cell lysates (human, UniProt P04626). Put plainly: immunoprecipitation from SKBR3 extract, blot detected with antiserum 21N.
The target of assay [3] is T1, human c-erbB-2 protein. Put plainly: immunofluorescent staining of fixed HC11 cells transfected with human c-erbB-2 (clone R1#11), non-transfected HC11 as control; screen of hybridoma supernatants.

B1: mouse monoclonal antibody FWP51 (antibody, V domains shown)
VH: QVQLQQSGAELVRPGTSVKLSCKASDYTFTSYWMNWVKQRPGQGLEWIGMIDPSDSETQYNQMFKDKAALTVDKSSNTAYMQLSSLTSEDSAVYYCAKGGASGDWYFDVWGQGTTVTVSS
VL: DIQLTQSPSSLSASLGGEVTITCKASQDIKKYIAWYQHKPGKSPRLLIHYTSVLQPGIPSRFSGSGSGRDYSFSIHNLEPEDIATYYCLHYDYLYTFGGGTKLEI
As to B1, the binding result in assay [1] and in assay [2] was “binds” in each case.

B2: mouse monoclonal antibody FRP5 (antibody, V domains shown)
VH: QVQLQQSGPELKKPGETVKISCKASGYPFTNYGMNWVKQAPGQGLKWMGWINTSTGESTFADDFKGRFDFSLETSANTAYLQINNLKSEDMATYFCARWEVYHGYVPYWGQGTTVTVSS
VL: DIQLTQSHKFLSTSVGDRVSITCKASQDVYNAVAWYQQKPGQSPKLLIYSASSRYTGVPSRFTGSGSGPDFTFTISSVQAEDLAVYFCQQHFRTPFTFGSGTKLEI
Turning to B2, the binding result in assay [3] and in assay [2] was “binds” each time.
